# Test system: MS2 coat protein
# Test: apparent KD of MS2 coat protein; higher = weaker reporter binding
# Conditions: Eterna round: R107; input ligand: theophylline 20 uM
# In short: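 Designed RNA switches, transcribed on-chip from Illumina sequencing clusters, were titrated with SNAP-549-labelled MS2 coat protein from 0.7 or 1.5 nM to 3 µM in twofold steps. The solution was 100 mM Tris-HCl pH 7.5, 80 mM KCl, 4 mM MgCl2, with constant ligand or without it. Apparent KD is the median over each design's normalised cluster binding-curve fits.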
row,Sequence,apparent KD of MS2 coat protein [nM]
1,CCGGAGACCUCGGCCGCCACUCUCCAUGAGGAUCUCCCAUGUAACAUGAGGAUCACCCAUGUGCUGAGGACCGGGAGGUCCUCCU [Same State Tryptophan B GF 20],16.4
2,GCUGAACAUGAGGAUCACCCAUGUCCGGAUACCAGCGGACCUCAUCGCCCUUGGCAGCCGAACCAACAGCUUGUGGUGUUCACUC [theeternabot_sameState_MS2_Theo_A_10],58.2
3,AGUCUUGUAGGAAGGAGCGCAUACUUCACAUGAGGAUCACCCAUGUCAAGACGUGAGUCAGUGCAGGUAGGUCGCCUAACUAAGA [Same State - Arginine B (Freestyle 14)],28.7
4,AGAGUUAGACAAAAGUCUAGCUCACCAGAAGGAGCGUCCGAAAGGACAGGUAGGUCGCUGGUACAUGAGCAUCAGCCAUGUUCCU [ArgAS 15 #OpenEnded #AlternativeMS2],28
5,AACAUGAGGAUUGAUACCAGUCCAUGAGGAUCACAUGAGGAUCACCCAUGUGGAACAUGAGGCCCUUGGCAGCAGUACAACAUGA [Same State Theophylline B],17.2
6,GUAUAUUGAAAACAAUAUACAGUGGGUGAACGAGGACCGGUACGGCCGCCACUCGGACAUGAGGAUCACCCAUGUCCAUGUGAAA [AstrosExyTryA#8],17.1
7,AUCGUACCUGAUGAUACCAGCAAUUGCUCGUAACAUGAGGAUCACCCAUGUGAUCAGUGAUGCCCUUGGCAGCAUGAUCGGUGCA [Same State - Theophylline B (Freestyle 19)],183
8,AGCCCAUUACAUGAGGAUCACCCAUGUGAUACCAGUCAGGAAACUGACCCUUGGCAGCGCAUGAGGAUCACCCAUGCGCUGGGCA [Omei Theo A Exc A v6],11.7
9,ACUCGGUGUUUGUUGCUCCGAGUACGUGAUACCAGUUAAUUUUAUGGCCCUUGGCAGCAUGGGACAUGAGGAUCACCCAUGUUUA [#04 SameState-TheophyllineA],344
10,CCGAACAUGAGGAUCACCCAUGUUAGGGAUACCAGCUCAGACAUGGGCCCUUGGCAGCUCUAUAGCUGACGAAAGUCAGCAUCGG [#15 SameState-TheophyllineA],46.3
11,GGCCCUGCGAGCGCUCGCAGGGCCGCGGAUACCAGCGAGGUCCAUCGCCCUUGGCAGCCGAACAUGAGGAUCACCCAUGUCGGUC [#1 Same State - Theophylline A Attempt #11 (HarryS)],18.7
12,UGGUACAUGAGGAUCACCCAUGUUCCAGAUACCAGAUACCCGGUUAUCCCUUGGCAGCUGGUGUUACAUGAGGAUCACCCAUGUU [Exclusion Theophylline A GF16],46
13,UUAGAUAUGACAGAUACCAGCGUGUUGUAGAACAUGAGGAUCACCCAUGUAGUGAUCAAGCGCCCUUGGCAGCUGGUAUGUUUGG [7.X],277
14,GCUUGGGUGGCACGGCCCUGGCGGUGCGAUACCAGCACGGUAACGUGCCCUUGGCAGCGCACAUGAGGAUCACCCAUGUGGUGCG [#1 Exclusion - Theophylline A Attempt #24 (HarryS)],21.9
15,AAACAUUGCUGCGAUACCAGACAUGAGGAUCACCCAUGUACCAAGGUAAGAAAAUAACAUGUCCCUUGGCAGCGCAGCAAUGAAA [MAT - Exclusion Theophlline B - Mod of Eli - D2],33.4
16,AAUAAACAUGAGGAUCACCCAUGUAUGGAAGGAGCGGUGAAUAAACCAGGUAGGUCGCCAGUGUGAGGGUCAUCUAUGUAAUAAA [Exclusion - Arginine A (Freestyle 2)],43.1
17,CUGCCAUGCAGAGAUACCAGUGAGCUCAGAACAUGAGGAUCACCCAUGUAGGUUGCCGAUCACCCUUGGCAGCUCUGCAUGGCAG [*$+%!],28.4
18,UACAGCAGUACGGCCGCCACUCUAAGAUUGCGCGUUUAGGCCAUACAUGAGGAUCACCCAUGUCCGAGGACCGGGUACAGGAAUU [theeternabot_sameState_MS2_Trp_B_29],416

# Same assay, conditions: Eterna round: R107; input ligand: theophylline 2 mM
row,Sequence,apparent KD of MS2 coat protein [nM]
1,UGGUAUGUAGGAAGGAGCGCAUACUUCACAUGAGGAUCACCCAUGUCGAGACGUGAGUCAGUGCAGGUAGGUCGCCUAGUUAUGA [Same State - Arginine B (Freestyle 22)],28.1
2,CGUAUGUAGACGGCCGCCACUGGAACAAGAGGAUCACCCUUGUACAGGGUGGGACUAUCGAGAGUCAGGACCGGGUCUACAUACA [Tryp B Ex t2],140
3,AAGAGUUGACAAAAGUCAGCUCAAACCGAAGGAGCGGGAGAAAUCCCAGGUAGGUCGCGGUUACAUGAGGAUCACCCAUGUUCCU [ArgAS 6 #BothOrNeither #OpenEnded],300
4,AGAGUUAGACAAAAGUCUAGCUCACCAGAAGGAGCGUCCGAAAGGACAGGUAGGUCGCUGGUGCAUGAGGAUCACCCAUGCUCCU [ArgAS 19 #OpenEnded #AlternativeMS2],243
5,ACGCGUCAAGAGUAAAAUCCGUCAAGUGAUACCAGCCACAACGUAGGCCCUUGGCAGCACAUGAGGAUCACCCAUGUAAUAAGGA [Gedigerace],670
6,AAAAUAUAGACGGCCGCCACUAUAAACAUGAGGAACAUGAGGAUCACCCAUGUAUGAGGAUCACCUAGGACCGGGUCAUAUAAAA [AstrosExyTryB#1],41.7
7,UGGGCUGGGUGCGUAAAGGGCCUGGCGCAUCGAGGACCGGUACGGCCGCCACUCGGCUGUACAUGAGGAUCACCCAUGUCAGGGU [#1 Same State - Tryptophan A Attempt #18 (HarryS)],506
8,GUACAUGAGGAUCACCCAUGUAUAGUUGAAGGAGCGACCAGAGGGUCAGGUAGGUCGCAGCACAUGGUGUAAACCCGUGUAUGCC [#1 Exclusion - Arginine A Attempt #22 (Inspired by Pi)],28.9
9,UAUCCACAUGAGGAUCACCCAUGUUAGGAAGGAGCGGUGAAUGAACCAGGUAGGUCGCCUAGCUGAGGACUGUCGAUGGAUUCGU [Exclusion - Arginine A (Freestyle 17)],24.5
10,UAUUAUCAGUCGGCCGCCACUGUCACAUGAGGAUCACCCAUGUAACUUGGGUUAUAUUUAAUAUACAGGACCGGGACAAAGGCUA [JR_ExcTryptoB_Sub012],66.8
11,GCUACAUGAGGAUCACCCAUGUAUGCGAGCCGAGGACCGGUACGGCCGCCACUCGCUUAACAUGAGGAUCACCCAUGUUGCUCGC [SSTA DOUBLE!!! :-D #18],28.1
12,ACAUGAGGAUCACCCAUGUGUGUAAGUCCUCGAGGACCGGUACGGCCGCCACUCGAACGAGUGUAACAUACUUGUUACAAGUAUG [SS Trp A s3],43.3
13,UGUACCUAGUCGGCCGCCACUCCAAAAGGAGAGGAUCACCCUCCUAAACGAGUCAAAGACUCGAGGAGGACCGGGACUAGGUACU [Palindromic MS2 #AlternativeMS2 #Palindrome #StaticStem],33.9
14,UAUCCACAUGAGGAUCACCCAUGUUAGGAAGGAGCGGUGAAUGAACCAGGUAGGUCGCCUAGGUGAGGAUCAUCUAUGGAUUCGU [Exclusion - Arginine A (Freestyle 11)],38.3
15,CCGGAGACCUCGGCCGCCACUCUCCAUGAGGAUCUCCCAUGUAACAUGAGGAUCACCCAUGUGCUGAGGACCGGGAGGUCCUCCU [Same State Tryptophan B GF 20],17
16,AGUCUUGUAGGAAGGAGCGCAUACUUCACAUGAGGAUCACCCAUGUCAAGACGUGAGUCAGUGCAGGUAGGUCGCCUAACUAAGA [Same State - Arginine B (Freestyle 14)],26.3
17,AGAGUUAGACAAAAGUCUAGCUCACCAGAAGGAGCGUCCGAAAGGACAGGUAGGUCGCUGGUACAUGAGCAUCAGCCAUGUUCCU [ArgAS 15 #OpenEnded #AlternativeMS2],28.5
18,GUAUAUUGAAAACAAUAUACAGUGGGUGAACGAGGACCGGUACGGCCGCCACUCGGACAUGAGGAUCACCCAUGUCCAUGUGAAA [AstrosExyTryA#8],17.7
19,CCGAACAUGAGGAUCACCCAUGUUAGGGAUACCAGCUCAGACAUGGGCCCUUGGCAGCUCUAUAGCUGACGAAAGUCAGCAUCGG [#15 SameState-TheophyllineA],23.7

# Reference: the supplement of paper PMC9170038
